Where two headings read alike, the source gives them in different places.
What was measured:
Experiment in all cases: FRET or BRET
[1] = molecular target: T1, ERα ligand-binding domain Q375K (ERα-LBD-biotin) (human, biotin)
[2] = molecular target: T2, ERα ligand-binding domain Q375A (ERα-LBD-biotin) (human, biotin)
[3] = molecular target: T3, ERα ligand-binding domain Q375E (ERα-LBD-biotin) (human, biotin)
[4] = molecular target: T4, ERα ligand-binding domain, wild type (ERα-LBD-biotin) (human, biotin)
[5] = molecular target: T1, ERα ligand-binding domain Q375K …; remark: listed apart in the source
[6] = molecular target: T2, ERα ligand-binding domain Q375A …; remark: listed apart in the source
[7] = molecular target: T3, ERα ligand-binding domain Q375E …; remark: listed apart in the source
[8] = molecular target: T4, ERα ligand-binding domain, wild type …; remark: listed apart in the source
[9] = molecular target: T1, ERα ligand-binding domain Q375K …; remark: listed apart in the source
[10] = molecular target: T2, ERα ligand-binding domain Q375A …; remark: listed apart in the source
[11] = molecular target: T3, ERα ligand-binding domain Q375E …; remark: listed apart in the source
[12] = molecular target: T4, ERα ligand-binding domain, wild type …; remark: listed apart in the source
[13] = molecular target: T1, ERα ligand-binding domain Q375K …; remark: listed apart in the source
[14] = molecular target: T2, ERα ligand-binding domain Q375A …; remark: listed apart in the source
[15] = molecular target: T3, ERα ligand-binding domain Q375E …; remark: listed apart in the source
[16] = molecular target: T4, ERα ligand-binding domain, wild type …; remark: listed apart in the source
[17] = molecular target: T1, ERα ligand-binding domain Q375K …; remark: listed apart in the source
[18] = molecular target: T2, ERα ligand-binding domain Q375A …; remark: listed apart in the source
[19] = molecular target: T3, ERα ligand-binding domain Q375E …; remark: listed apart in the source
[20] = molecular target: T4, ERα ligand-binding domain, wild type …; remark: listed apart in the source
[21] = molecular target: T1, ERα ligand-binding domain Q375K …; remark: listed apart in the source
[22] = molecular target: T2, ERα ligand-binding domain Q375A …; remark: listed apart in the source
[23] = molecular target: T3, ERα ligand-binding domain Q375E …; remark: listed apart in the source
[24] = molecular target: T4, ERα ligand-binding domain, wild type …; remark: listed apart in the source

Kd [1]: 1.7 nM
fold reduction in SRC1 binding vs WT ER (Kd mutant/Kd WT) [2]: 17 fold
fold reduction in SRC1 binding vs WT ER (Kd mutant/Kd WT) [3]: 11 fold
Kd [4]: 3.4 nM
Kd [5]: 2.2 nM
fold reduction in SRC1 binding vs WT ER (Kd mutant/Kd WT) [6]: 8.8 fold
fold reduction in SRC1 binding vs WT ER (Kd mutant/Kd WT) [7]: 2.8 fold
Kd [8]: 6.8 nM
fold increase in SRC1 binding with ligand vs E2 (Kd E2/Kd compound) [9]: 0.16 fold
fold reduction in SRC1 binding vs WT ER (Kd mutant/Kd WT) [9]: 0.62 fold
fold reduction in SRC1 binding vs WT ER (Kd mutant/Kd WT) [10]: 5.5 fold
fold reduction in SRC1 binding vs WT ER (Kd mutant/Kd WT) [11]: 4.2 fold
fold increase in SRC1 binding with ligand vs E2 (Kd E2/Kd compound) [12]: 0.3 fold
Kd [13]: 1.6 nM
fold reduction in SRC1 binding vs WT ER (Kd mutant/Kd WT) [14]: 16 fold
fold reduction in SRC1 binding vs WT ER (Kd mutant/Kd WT) [15]: 8.7 fold
Kd [16]: 3 nM
Kd [17]: 2.1 nM
fold reduction in SRC1 binding vs WT ER (Kd mutant/Kd WT) [18]: 8 fold
fold reduction in SRC1 binding vs WT ER (Kd mutant/Kd WT) [19]: 3.4 fold
Kd [20]: 6.4 nM
Kd [21]: 1.5 nM
fold reduction in SRC1 binding vs WT ER (Kd mutant/Kd WT) [22]: 21 fold
fold reduction in SRC1 binding vs WT ER (Kd mutant/Kd WT) [23]: 7.4 fold
Kd [24]: 3.5 nM
B1: SRC1 NR interaction domain (ca. 200 amino acids), FRET acceptor-labeled (domain or fragment)
chain: PSRLNIQPAKAESKDNKEIASILNEMIQSDNSSSDGKPLDSGLLHNNDRLSDGDSKYSQTSHKLVQLLTTTAEQQLRHADIDTSCKDVLSCTGTSNSASANSSGGSCPSSHSSLTERHKILHRLLQEGSPSDITTLSVEPDKKDSASTSVSVTGQVQGNSSIKLELDASKKKESKDHQLLRYLLDKDEKDLRSTPNLSLDDVKVKVEKKEQ
modifications: FRET acceptor label (not named)
